Measured values reported in the Human Domainome abundance scans (Beltran et al. 2025).
± gives the uncertainty stated by the source.

B1: POU domain, class 3, transcription factor 2, residues 356 to 411; numbered along this chain, P20265 (parent)
chain: KKRTSIEVSVKGALESHFLKCPKPSAQEITSLADSLQLEKEVVRVWFCNRRQKEKR

Variants of: B1
Assay: abundance fitness (aPCA) (normalised: wild type 0, dead -1); higher = more abundant; growth selection in yeast, the domain comes from the species named
Details: Homo sapiens

Variant	abundance fitness
KKRTSIEVSVKGALESHFLKCGKPSAQEITSLADSLQLEKEVVRVWFCNRRQKEKR [P22G]	-0.46 ± 0.09
KKRTSIEVSVKGALESHFLKCWKPSAQEITSLADSLQLEKEVVRVWFCNRRQKEKR [P22W]	-0.699 ± 0.13
KKRTSIEVSVKGALESHFLKCPSPSAQEITSLADSLQLEKEVVRVWFCNRRQKEKR [K23S]	0.024 ± 0.083
KKRTSIEVSVKGALESHFLKCPGPSAQEITSLADSLQLEKEVVRVWFCNRRQKEKR [K23G]	-0.426 ± 0.095
KKRTSIEVSVKGALESHFLKCPWPSAQEITSLADSLQLEKEVVRVWFCNRRQKEKR [K23W]	-0.336 ± 0.13
KKRTSIEVSVKGALESHFLKCPCPSAQEITSLADSLQLEKEVVRVWFCNRRQKEKR [K23C]	0.023 ± 0.13
KKRTSIEVSVKGALESHFLKCPYPSAQEITSLADSLQLEKEVVRVWFCNRRQKEKR [K23Y]	-0.312 ± 0.16
KKRTSIEVSVKGALESHFLKCPVPSAQEITSLADSLQLEKEVVRVWFCNRRQKEKR [K23V]	-0.045 ± 0.092
KKRTSIEVSVKGALESHFLKCPTPSAQEITSLADSLQLEKEVVRVWFCNRRQKEKR [K23T]	0.086 ± 0.1
KKRTSIEVSVKGALESHFLKCPFPSAQEITSLADSLQLEKEVVRVWFCNRRQKEKR [K23F]	-0.163 ± 0.12
KKRTSIEVSVKGALESHFLKCPPPSAQEITSLADSLQLEKEVVRVWFCNRRQKEKR [K23P]	-0.863 ± 0.17
KKRTSIEVSVKGALESHFLKCPNPSAQEITSLADSLQLEKEVVRVWFCNRRQKEKR [K23N]	0.105 ± 0.14
KKRTSIEVSVKGALESHFLKCPLPSAQEITSLADSLQLEKEVVRVWFCNRRQKEKR [K23L]	-0.203 ± 0.069
KKRTSIEVSVKGALESHFLKCPAPSAQEITSLADSLQLEKEVVRVWFCNRRQKEKR [K23A]	-0.135 ± 0.094
KKRTSIEVSVKGALESHFLKCPRPSAQEITSLADSLQLEKEVVRVWFCNRRQKEKR [K23R]	-0.041 ± 0.078
KKRTSIEVSVKGALESHFLKCPQPSAQEITSLADSLQLEKEVVRVWFCNRRQKEKR [K23Q]	-0.002 ± 0.12
KKRTSIEVSVKGALESHFLKCPMPSAQEITSLADSLQLEKEVVRVWFCNRRQKEKR [K23M]	-0.077 ± 0.11
KKRTSIEVSVKGALESHFLKCPIPSAQEITSLADSLQLEKEVVRVWFCNRRQKEKR [K23I]	-0.117 ± 0.16
KKRTSIEVSVKGALESHFLKCPDPSAQEITSLADSLQLEKEVVRVWFCNRRQKEKR [K23D]	0.093 ± 0.17
KKRTSIEVSVKGALESHFLKCPEPSAQEITSLADSLQLEKEVVRVWFCNRRQKEKR [K23E]	0.072 ± 0.099
KKRTSIEVSVKGALESHFLKCPKGSAQEITSLADSLQLEKEVVRVWFCNRRQKEKR [P24G]	-0.691 ± 0.11
KKRTSIEVSVKGALESHFLKCPKESAQEITSLADSLQLEKEVVRVWFCNRRQKEKR [P24E]	-0.846 ± 0.21
KKRTSIEVSVKGALESHFLKCPKISAQEITSLADSLQLEKEVVRVWFCNRRQKEKR [P24I]	-0.919 ± 0.38
KKRTSIEVSVKGALESHFLKCPKCSAQEITSLADSLQLEKEVVRVWFCNRRQKEKR [P24C]	-0.731 ± 0.19

Variant	abundance fitness
KKRTSIEVSVKGALESHFLKCPKASAQEITSLADSLQLEKEVVRVWFCNRRQKEKR [P24A]	-0.789 ± 0.16
KKRTSIEVSVKGALESHFLKCPKFSAQEITSLADSLQLEKEVVRVWFCNRRQKEKR [P24F]	-0.999 ± 0.29
KKRTSIEVSVKGALESHWLKCPKPSAQEITSLADSLQLEKEVVRVWFCNRRQKEKR [F18W]	-0.335 ± 0.1
KKRTSIEVSVKGALESHVLKCPKPSAQEITSLADSLQLEKEVVRVWFCNRRQKEKR [F18V]	-1.03 ± 0.12
KKRTSIEVSVKGALESHFLFCPKPSAQEITSLADSLQLEKEVVRVWFCNRRQKEKR [K20F]	-0.175 ± 0.15
KKRTSIEVSVKGALESHFLHCPKPSAQEITSLADSLQLEKEVVRVWFCNRRQKEKR [K20H]	-0.463 ± 0.27
KKRTSIEVSVKGALESHFLPCPKPSAQEITSLADSLQLEKEVVRVWFCNRRQKEKR [K20P]	-1.03 ± 0.16
KKRTSIEVSVKGALESHFLQCPKPSAQEITSLADSLQLEKEVVRVWFCNRRQKEKR [K20Q]	-0.443 ± 0.16
KKRTSIEVSVKGALESHFLMCPKPSAQEITSLADSLQLEKEVVRVWFCNRRQKEKR [K20M]	-0.336 ± 0.12
KKRTSIEVSVKGALESHFLLCPKPSAQEITSLADSLQLEKEVVRVWFCNRRQKEKR [K20L]	-0.322 ± 0.082
KKRTSIEVSVKGALESHFLVCPKPSAQEITSLADSLQLEKEVVRVWFCNRRQKEKR [K20V]	-0.323 ± 0.096
KKRTSIEVSVKGALESHFLYCPKPSAQEITSLADSLQLEKEVVRVWFCNRRQKEKR [K20Y]	-0.379 ± 0.17
KKRTSIEVSVKGALESHFLNCPKPSAQEITSLADSLQLEKEVVRVWFCNRRQKEKR [K20N]	-0.262 ± 0.13
KKRTSIEVSVKGALESHFLACPKPSAQEITSLADSLQLEKEVVRVWFCNRRQKEKR [K20A]	-0.319 ± 0.11
KKRTSIEVSVKGALESHFLTCPKPSAQEITSLADSLQLEKEVVRVWFCNRRQKEKR [K20T]	-0.16 ± 0.11
KKRTSIEVSVKGALESHFLGCPKPSAQEITSLADSLQLEKEVVRVWFCNRRQKEKR [K20G]	-0.466 ± 0.09
KKRTSIEVSVKGALESHFLICPKPSAQEITSLADSLQLEKEVVRVWFCNRRQKEKR [K20I]	-0.215 ± 0.13
KKRTSIEVSVKGALESHFLSCPKPSAQEITSLADSLQLEKEVVRVWFCNRRQKEKR [K20S]	-0.248 ± 0.095
KKRTSIEVSVKGALESHFLDCPKPSAQEITSLADSLQLEKEVVRVWFCNRRQKEKR [K20D]	-0.46 ± 0.2
KKRTSIEVSVKGALESHFLWCPKPSAQEITSLADSLQLEKEVVRVWFCNRRQKEKR [K20W]	-0.605 ± 0.12
KKRTSIEVSVKGALESHFLCCPKPSAQEITSLADSLQLEKEVVRVWFCNRRQKEKR [K20C]	-0.392 ± 0.11
KKRTSIEVSVKGALESHFLRCPKPSAQEITSLADSLQLEKEVVRVWFCNRRQKEKR [K20R]	-0.223 ± 0.076
KKRTSIEVSVKGALESHFLECPKPSAQEITSLADSLQLEKEVVRVWFCNRRQKEKR [K20E]	-0.445 ± 0.12
